Measured values published in PMC4735555 (2016).

Target: 2N5.1 TCR
Assay: SPR; Mamu-B*098 loaded with C14nef5

Kd: 2.5 µM
B1: β2m-linked Mamu-B*098 protein (single-chain, refolded without C14nef5, biotinylated) (other)
chain: IQRTPKIQVYSRHPPENGKPNFLNCYVSGFHPSDIEVDLLKNGEKMGKVEHSDLSFSKDWSFYLLYYTEFTPNEKDEYACRVNHVTLSGPRTVKWDRDMGGGGSGGSGSGGGSSGSHSMRYFSTTVSRPGRGEPRFIVVGYVDDTQFVRFDSDAASPKMEPRAPWMEQEGPEYWEEQTRRVKDAAQTFRVSLGNLRGYYNQSEAGSHTLQTMSGCDLGPDGRLLRGYYQQAYDGRDYIALNEDLRSWTAADEAAQNTQRKWEAAGVAEQWRAYLEGECLESLRRYLENGKETLQRAEPPKTHVTHHPVSDHEATLRCWALGFYPAEITLTWQRDGEDQTQDTELVETRPGGDGTFQKWGAVVVPSGEEQRYTCHVQHEGLPEPLTLRWEPLHHILDAQKMVWNHR
modifications: biotin (BirA) on the biotinylation sequence peptide
